Assay results published in article PMC10104074.

Molecular target: globupain zymogen (wild-type, signal-free, C-terminal 6xHis) (unclassified Archaeoglobus species (metagenome, Soria Moria hydrothermal vent field))
Experiment: SEC + AUC

## globupain zymogen (wild-type, signal-free, C-terminal 6xHis) (enzyme)
  stoichiometry N: 2
